Assay results reported in publication PMC4847949 (Journal of molecular biology, 2016).

T1: MiniFLASH (human, UniProt Q9UKL3 1-138; Q9UKL3 1931-1982)
T1 sequence (looked up): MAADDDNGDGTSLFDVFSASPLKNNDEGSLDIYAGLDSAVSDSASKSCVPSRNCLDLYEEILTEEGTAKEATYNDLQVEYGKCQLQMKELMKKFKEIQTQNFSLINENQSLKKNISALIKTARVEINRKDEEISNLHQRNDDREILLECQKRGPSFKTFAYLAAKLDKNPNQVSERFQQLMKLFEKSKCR

B1: Lsm 169N (MBP fusion) (domain or fragment, human, UniProt P83369 1-169, looked up)
chain: MEERERGARSAGAGSPARPPSPRLDVSSDSFDPLLALYAPRLPPIPYPNAPCFNNVAEYESFLRTGVRGGGRGRGRARGAAAGSGVPAAPGPSGRTRRRPDAPAPDPERIQRLRRLMVAKEEGDGAAGAGRRGPGRSRKAPRNVLTRMPLHEGSPLGELHRCIREGVKV
B2: FLASH 159N (domain or fragment, human, UniProt Q9UKL3 1-159, looked up)
chain: MAADDDNGDGTSLFDVFSASPLKNNDEGSLDIYAGLDSAVSDSASKSCVPSRNCLDLYEEILTEEGTAKEATYNDLQVEYGKAQLQMKELMKKFKEIQTQNFSLINENQSLKKNISALIKTARVEINRKDEEISNLHQRLSEFPHFRNNHKTARTFDTV
B3: FLASH 138N (domain or fragment, human, UniProt Q9UKL3 29-138, looked up)
chain: SLDIYAGLDSAVSDSASKSCVPSRNCLDLYEEILTEEGTAKEATYNDLQVEYGKAQLQMKELMKKFKEIQTQNFSLINENQSLKKNISALIKTARVEINRKDEEISNLHQ

Assays:
[1] = target: T1, MiniFLASH; experiment: HDX-MS
[2] = target: B1; experiment: HDX-MS

Row | binding result [1] | binding result [2] | Binder
1 | binds |  | B1
2 |  | binds | B2
3 |  | binds | B3
